{
  "source": "the nanobody polyreactivity screen of Harvey et al. (2022)",
  "data": [
    {"assay": "yeast display, Sf9 membrane polyspecificity reagent, FACS + sequencing; frameworks hold sequencing errors", "how_it_was_run": "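After 36–48 hours of galactose induction, yeast (Saccharomyces cerevisiae BJ5465) displaying a synthetic nanobody library were stained at 4 °C for 1 hour with 10% biotinylated, detergent-solubilized Sf9 membrane reagent. Streptavidin microbeads enriched the stained cells before FACS sorting into low and high (top ~1%) gates on anti-HA and streptavidin fluorescence. Each clone's polyreactivity label reflects its gate of origin.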", "values": [
      {"sequence": "QVQLVESGGGLVQAGASLRLSCAASGIILSVYAMGWYRQAPGKERELVAAITTVGNTYYADSVKGRFTISRDNAKNTVYLEMNCLKPEDTAVYYCAAKRWTTYKYNYWGQGTQVTVSS", "polyreactivity (PSR sort gate)": "high polyreactivity"},
      {"sequence": "QVQLVESGGGLVQAGASLRLSCAASGITLDLYDMGWYRQAPGKERELVAAISRSGVRTYYADSVKWRFTISRDNAKNTVYFQMNSLKPEDTSVYYCNKGYARRYASGYDYWGQGTQVSVSS", "polyreactivity (PSR sort gate)": "high polyreactivity"},
      {"sequence": "QVQLVESGGGLVQAGASLRLSCAASGRIFSRNTMGWSRQAPGKECEFVAAISQSGGRTYYADSVKGRFTISRDNAKNTVYLQMNSLKPEDTAVYYCNAQFARSSGFNYWGQGTQVTVSS", "polyreactivity (PSR sort gate)": "high polyreactivity"},
      {"sequence": "QVQLVESGGGLVQAGASLRLSCAASGRIFVVNAMGWYRQAPGKERELVATITRSGGITYYADSVKGRFTISRDNAKNTVYLQMNSLKPEDTAVYYCNADVLFYTYYTRGRFDFDYWGQGSQVTVSS", "polyreactivity (PSR sort gate)": "low polyreactivity"},
      {"sequence": "QVQLVESGGGLVQAGASLRLSCAASGRTFEANTMGWYRQAPGKERELVAAITRNGGSTYYADSVKGRFTISRDNAKNTVYLQMNSLKPEDPAVYYCAARSAYRSRHKYDYWGQGTQVTVSS", "polyreactivity (PSR sort gate)": "high polyreactivity"},
      {"sequence": "QVQLVESGGGLVQAGASLRLSCAASGRTFWFYAMGWYRQAPGQERELVAAISSGGSTNYADSVKGLFTISRDNAKNTVYLQMNSLKPEDTAVYYCAKVGNIPYGTRYYYNRYDYWGQGTQVTVSS", "polyreactivity (PSR sort gate)": "low polyreactivity"},
      {"sequence": "QVQLVESGGGLVQAGASLRLSCAASGRTIYANAMGWYIQAPGKERELVAAISRRGGNTYYADSVKGRFTISRDNAKNTVYLQMNRLKPEDTAVYYCYAYGGGDYWGQGTQVTVSS", "polyreactivity (PSR sort gate)": "high polyreactivity"},
      {"sequence": "QVQLVESGGGLVQAGASLRLSCAASGSIFFPYAMGWYRQAPGKERELVASITRAGSTNYADSVKGRFTISRDNAKNTVYLQMTSQKPVDTAVYYCAARNYRQFEYGYWGQGTLVTVSS", "polyreactivity (PSR sort gate)": "low polyreactivity"},
      {"sequence": "QVQLVESGGGLVQAGASLRLSCAASGSTFLRNAMGWYRQAPGKKGSWVATISYDGDSTYYADSVKGRFTISRDNTKNTVYLQMNSLKPEDPAVYYCAASYSLTFWDKDDYWGQGTQVSVSS", "polyreactivity (PSR sort gate)": "low polyreactivity"},
      {"sequence": "QVQLVESGGGLVQAGASLRLSCAASGSTFYGNTMGWYRQAPGKERELVAAITSTGRTYYADSVKGRFTLSRDNAKNTVYLQMNSLKPEDTAVYYCAASQRRRFQRPSFDYWGQGPQVTVSS", "polyreactivity (PSR sort gate)": "high polyreactivity"},
      {"sequence": "QVQLVESGGGLVQAGASLRLSCAASGSTFYVNAMGWYRQAPGKERELVASISSSSGSTYYADSVKRRFTISRDNAKNTVYFQMNSLKPEDTAVYYCAAEVGIFIWFDYWGQGTQVTVSS", "polyreactivity (PSR sort gate)": "low polyreactivity"},
      {"sequence": "QVQLVESGGGLVQAGASLRLSCAASGSTLWYYAMGWYRQAPGKERELVADITSSGNTNYADSVKGRFTISRDNAKNTVYLQMNSLKPEDTAVYYCAADSANYQWYLSWQKDDYWGQGTKVTVSS", "polyreactivity (PSR sort gate)": "low polyreactivity"},
      {"sequence": "QVQLVESGGGLVQAGASLRLSCADSGIIFQVYAMGWYRQAPGKERELVAAISDDGSTNYADSVKGRFTISRDNAKNTVYLQMNSLKPEDTAVYYCAKESWGRLYYRYDYWGQGTQVTVSS", "polyreactivity (PSR sort gate)": "low polyreactivity"},
      {"sequence": "QVQLVESGGGLVQAGASLRLSCSASGRTFLNYTMGWSRHAPGTERELVAAIRYRDGSTYYADSVKGRFTISRDNAKNTVYLQMNSLKPVDTAVYYCNTRITQVGDYIYDYWGQGTQVTVSS", "polyreactivity (PSR sort gate)": "low polyreactivity"},
      {"sequence": "QVQLVESGGGLVQAGCILRLSCAASGFTFSWYAMGWYRQARGKERELVAAISYSGDSTYYADSVKGRFTISRDNAKNTVYLQMNSLKPEDTAVYYCARRSYYATYYPQPFGYNYLGQGTQVTVSS", "polyreactivity (PSR sort gate)": "high polyreactivity"},
      {"sequence": "QVQLVESGGGLVQAGCSGSLSCAASGRIFQRNSMGWYRQAPGKEREFVAAITKSGGGTYADSVKGRFTISRDNAKNTVYLQMNSLKPEDTAVYYCNVVPVWRPYSLINWQKHFGYWGQGTQVTVSS", "polyreactivity (PSR sort gate)": "high polyreactivity"},
      {"sequence": "QVQLVESGGGLVQAGCSLRISCAASGFTFAHNEMGWSRQAPGKERELVAAISSRGGRTFYADSVKGRFTISRDNAKKTVYLQMNSLKPEDTAVDYCNRVRSVQYDYWGQGSQVTVSS", "polyreactivity (PSR sort gate)": "high polyreactivity"},
      {"sequence": "QVQLVESGGGLVQAGCSLRLICAASGRIFSTYAMGWYRQAPGKERELVAAITSRGGSTYYADSVKGRFTISRDNAKNTVYLQMNSLKPEDTAVYYCATESPYKWGGYRFYYWGQGTQVTVSS", "polyreactivity (PSR sort gate)": "high polyreactivity"},
      {"sequence": "QVQLVESGGGLVQAGCSLRLSCAASGFIFVGKDMGWYRQAPGKERELVAAISSGGTTNYADSVKGRFTISRDNAKNTVYLQMNSLKPEDTAVYYCAADFDYRQGYDSFHLDYWGQGTQVTVSS", "polyreactivity (PSR sort gate)": "low polyreactivity"},
      {"sequence": "QVQLVESGGGLVQAGCSLRLSCAASGFIFYDYDMGWYRQAPGKERELVAAITYSGGSTYYADSVKGRFTISRDNAKNTVYFQMNSLKPEDTAVYYCAAVKSRYAEAVDYYYWGQGTQVTVSS", "polyreactivity (PSR sort gate)": "low polyreactivity"},
      {"sequence": "QVQLVESGGGLVQAGCSLRLSCAASGFTFFKYAMGWYRQAPGTERELVAAITRNGGRTYYADSVKGRFTISRDNAKNTVYLQMNSLKPEDTAVYYCAARYANLRNGYRYDYWGQGTQVTVSS", "polyreactivity (PSR sort gate)": "high polyreactivity"}
    ]}
  ]
}
